According to publication PMC4856590 (Structure (London, England : 1993), 2016):
Where no end group is shown, it is not given here. The star is where a group is joined. FITC = O=C1OC2(c3ccc(O)cc3Oc3cc(O)ccc32)c2ccc(NC(=S)*)cc21

B1: Trib1 molecule containing residues 83-372 (domain or fragment, human, UniProt Q96RU8 83-372, looked up)
chain: GSAPGPSRIADYLLLPLAEREHVSRALCIHTGRELRCKVFPIKHYQDKIRPYIQLPSHSNITGIVEVILGETKAYVFFEKDFGDMHSYVRSRKRLREEEAARLFKQIVSAVAHCHQSAIVLGDLKLRKFVFSTEERTQLRLESLEDTHIMKGEDDALSDKHGCPAYVSPEILNTTGTYSGKAADVWSLGVMLYTLLVGRYPFHDSDPSALFSKIRRGQFCIPEHISPKARCLIRSLLRREPSERLTAPEILLHPWFESVLEPGYIDSEIGTSDQIVPEYQEDSDISSFFC

Assays:
[1] = target: T1, human COP1 β-propeller (376-731) (human, UniProt Q8NHY2 376-731); experiment: fluorescence polarisation
[2] = target: T1, human COP1 β-propeller (376-731); experiment: fluorescence polarisation; remark: listed apart in the source

T1 sequence (Q8NHY2 376-731): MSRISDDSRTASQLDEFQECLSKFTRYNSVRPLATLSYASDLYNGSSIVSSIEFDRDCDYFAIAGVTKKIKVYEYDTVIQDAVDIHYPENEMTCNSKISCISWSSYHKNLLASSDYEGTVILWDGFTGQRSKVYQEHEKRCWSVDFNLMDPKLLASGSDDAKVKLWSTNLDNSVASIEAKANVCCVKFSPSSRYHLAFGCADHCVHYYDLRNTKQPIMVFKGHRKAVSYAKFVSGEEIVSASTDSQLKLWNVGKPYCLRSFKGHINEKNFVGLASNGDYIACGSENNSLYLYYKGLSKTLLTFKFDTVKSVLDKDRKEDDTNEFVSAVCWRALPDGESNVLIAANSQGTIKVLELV

Binder	Kd [1]	binding result [2]
{FITC}-SEIGTSDQIVPEYQEDSDI [FITC-SEIGTSDQIVPEYQEDSDI]	250 ± 40 nM	
B1		binds
